# T1: human CD2 (human, UniProt P06729)
# T1 chain: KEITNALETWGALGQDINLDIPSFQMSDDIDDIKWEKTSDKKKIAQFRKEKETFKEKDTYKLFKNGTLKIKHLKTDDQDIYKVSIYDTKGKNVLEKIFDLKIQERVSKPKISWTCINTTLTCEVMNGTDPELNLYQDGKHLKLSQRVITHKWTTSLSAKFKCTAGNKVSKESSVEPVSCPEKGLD
# B1: DARPin #3 (designed binder)
# chain: DLGKKLLQAARAGQLDEVRELLKAGADVNAKDQQGVTPLHIAAYGHLEIVEVLLKAGADVNAKDLQGETPLHVAAWAGHLEIVEVLLKAGADVNAKDKHGITPLHLAAKKGHLEIVEVLLKAGAEVNAQDKSGKTPADLAARAGHQDIAEVLQKAA
# B2: DARPin #1 (designed binder)
# chain: DLGVKLLHAAQTGQDDEVRILLAAGADVNAKDWLGVTPLHYAAWIGHLEIVEVLLKAGADVNAKDWQGQTPLHLAAQWGHLEIVEVLLKAGADVNAQDNHGNTPADLAAEVGHEDIAEVLQKAA
# B3: DARPin #2 (designed binder)
# chain: DLGKKLLQAARAGQLDEVRELLKAGADVNAKDQHGFTPLHVAAKEGHLEIVEVLLKAGADVNAKDSFGETPLHLAAEHGHLEIVEVLLKAGADVNAKDQSGWTPLHLAAWAGHLEIVEVLLKAGADVNAQDKSGKTPADLAARAGHQDIAEVLQKAA
# B4: DARPin #15 (designed binder)
# chain: DLGDKLLEAAQYGQDDEVRILLAAGADVNAKDNSGSTPLHLAAQHGHLEIVEVLLKAGADVNAKDWWGWTPLHEAATTGHLEIVEVLLKAGADVNAQDKSGKTPADLAAHAGHEDIAEVLQKAA
# Biological target: T1, human CD2
# Assay: SPR
row,Binder,Kd [nM]
1,B1,48
2,B2,3.28
3,B3,382
4,B4,15.9

# From patent US20260374869 (published 2026)
